B1: lifastuzumab (v18993), reference anti-NaPi2b antibody (antibody, human IgG1, kappa)
heavy 1: GEVQLVESGGGLVQPGGSLRLSCAASGFSFSDFAMSWVRQAPGKGLEWVATIGRVAFHTYYPDSMKGRFTISRDNSKNTLYLQMNSLRAEDTAVYYCARHRGFDVGHFDFWGQGTLVTVSSASTKGPSVFPLAPSSKSTSGGTAALGCLVKDYFPEPVTVSWNSGALTSGVHTFPAVLQSSGLYSLSSVVTVPSSSLGTQTYICNVNHKPSNTKVDKKVEPKSCDKTHTCPPCPAPELLGGPSVFLFPPKPKDTLMISRTPEVTCVVVDVSHEDPEVKFNWYVDGVEVHNAKTKPREEQYNSTYRVVSVLTVLHQDWLNGKEYKCKVSNKALPAPIEKTISKAKGQPREPQVYVYPPSRDELTKNQVSLTCLVKGFYPSDIAVEWESNGQPENNYKTTPPVLDSDGSFALVSKLTVDKSRWQQGNVFSCSVMHEALHNHYTQKSLSLSPG
heavy 2: not shown
light: GDIQMTQSPSSLSASVGDRVTITCRSSETLVHSSGNTYLEWYQQKPGKAPKLLIYRVSNRFSGVPSRFSGSGSGTDFTLTISSLQPEDFATYYCFQGSFNPLTFGQGTKVEIKRTVAAPSVFIFPPSDEQLKSGTASVVCLLNNFYPREAKVQWKVDNALQSGNSQESVTEQDSKDSTYSLSSTLTLSKADYEKHKVYACEVTHQGLSSPVTKSFNRGEC
B2: palivizumab (v21995), anti-RSV antibody, negative control (antibody, human IgG1, kappa, V domains shown)
VH: QVTLRESGPALVKPTQTLTLTCTFSGFSLSTSGMSVGWIRQPPGKALEWLADIWWDDKKDYNPSLKSRLTISKDTSKNQVVLKVTNMDPADTATYYCARSMITNWYFDVWGAGTTVTVSS
VL: DIQMTQSPSTLSASVGDRVTITCKSQLSVGYMHWYQQKPGKAPKLLIYDTSKLASGVPSRFSGSGSGTEFTLTISSLQPDDFATYYCFQGSGYPFTFGGGTKLEIKR
B3: MX35 (v18992), reference anti-NaPi2b antibody (antibody, human IgG1, kappa)
heavy 1: GQVQLVQSGAEVVKPGASVKMSCKASGYTFTGYNIHWVKQAPGQGLEWIGAIYPGNGDTSYKQKFRGRATLTADTSTSTVYMELSSLRSEDSAVYYCARGETARATFAYWGQGTLVTVSSASTKGPSVFPLAPSSKSTSGGTAALGCLVKDYFPEPVTVSWNSGALTSGVHTFPAVLQSSGLYSLSSVVTVPSSSLGTQTYICNVNHKPSNTKVDKKVEPKSCDKTHTCPPCPAPELLGGPSVFLFPPKPKDTLMISRTPEVTCVVVDVSHEDPEVKFNWYVDGVEVHNAKTKPREEQYNSTYRVVSVLTVLHQDWLNGKEYKCKVSNKALPAPIEKTISKAKGQPREPQVYVYPPSRDELTKNQVSLTCLVKGFYPSDIAVEWESNGQPENNYKTTPPVLDSDGSFALVSKLTVDKSRWQQGNVFSCSVMHEALHNHYTQKSLSLSPG
heavy 2: not shown
light: GDIQMTQSPSSLSASVGDRVTITCSASQDIGNFLNWYQQKPGKTVKVLIYYTSSLYSGVPSRFSGSGSGTDYTLTISSLQPEDFATYYCQQYSKLPLTFGQGTKLELKRTVAAPSVFIFPPSDEQLKSGTASVVCLLNNFYPREAKVQWKVDNALQSGNSQESVTEQDSKDSTYSLSSTLTLSKADYEKHKVYACEVTHQGLSSPVTKSFNRGEC

target: T1, Construct 1 (chimeric human NaPi2b, swap in NaPi2c in 239-259) (human); experiment: flow cytometry, transfected HEK293-6e cells, antibody 2 nM;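 further: transfected cells exposed to test antibody 24 h at 4 °C to block internalization, at least 1,000 events per well, background is mean MFI of unstained cells lacking primary antibody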
T1 construct: also called CL_#29914

Binder	Background-Subtracted AF647 Mean Fluorescence Intensity [MFI]
B1	1230
B2	-30
B3	1890

target: T2, Construct 4 (chimeric human NaPi2b, swap in NaPi2c in 341-358) (human); experiment: as above
T2 construct: also called CL_#13435

Binder	Background-Subtracted AF647 Mean Fluorescence Intensity [MFI]
B1	726
B2	1
B3	611

target: T3, Construct 6 (human NaPi2b del 317-333) (human, UniProt O95436 1-690); experiment: as above
T3 construct: also called CL_#29919
T3 sequence: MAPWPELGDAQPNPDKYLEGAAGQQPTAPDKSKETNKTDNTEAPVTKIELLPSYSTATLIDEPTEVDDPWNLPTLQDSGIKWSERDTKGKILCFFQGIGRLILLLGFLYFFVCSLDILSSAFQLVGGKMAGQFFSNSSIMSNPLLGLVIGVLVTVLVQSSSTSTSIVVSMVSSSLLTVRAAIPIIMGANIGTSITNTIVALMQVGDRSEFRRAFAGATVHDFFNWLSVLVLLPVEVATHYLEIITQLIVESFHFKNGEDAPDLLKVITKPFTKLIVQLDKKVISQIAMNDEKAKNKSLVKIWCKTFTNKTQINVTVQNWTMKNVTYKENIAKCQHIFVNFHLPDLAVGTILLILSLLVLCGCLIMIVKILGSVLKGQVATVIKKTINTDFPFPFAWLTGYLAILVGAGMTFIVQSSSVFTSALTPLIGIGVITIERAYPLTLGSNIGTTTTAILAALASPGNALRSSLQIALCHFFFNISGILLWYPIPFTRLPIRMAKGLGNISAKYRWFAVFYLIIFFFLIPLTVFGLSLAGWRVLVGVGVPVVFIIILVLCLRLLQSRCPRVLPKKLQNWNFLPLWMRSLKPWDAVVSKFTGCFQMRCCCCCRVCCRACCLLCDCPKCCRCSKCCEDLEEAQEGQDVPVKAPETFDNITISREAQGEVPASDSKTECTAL

Binder	Background-Subtracted AF647 Mean Fluorescence Intensity [MFI]
B1	-91
B2	11
B3	-59

target: T4, Construct 2 (chimeric human NaPi2b, swap in NaPi2c in 280-301) (human); experiment: as above
T4 construct: also called CL_#29915

Binder	Background-Subtracted AF647 Mean Fluorescence Intensity [MFI]
B1	473
B2	-69
B3	660

target: T5, Full length human NaPi2b (sodium-dependent phosphate transporter 2B, SLC34A2) (human, UniProt O95436 1-690); experiment: as above
T5 construct: also called huNaPi2b; CL_#13432
T5 sequence: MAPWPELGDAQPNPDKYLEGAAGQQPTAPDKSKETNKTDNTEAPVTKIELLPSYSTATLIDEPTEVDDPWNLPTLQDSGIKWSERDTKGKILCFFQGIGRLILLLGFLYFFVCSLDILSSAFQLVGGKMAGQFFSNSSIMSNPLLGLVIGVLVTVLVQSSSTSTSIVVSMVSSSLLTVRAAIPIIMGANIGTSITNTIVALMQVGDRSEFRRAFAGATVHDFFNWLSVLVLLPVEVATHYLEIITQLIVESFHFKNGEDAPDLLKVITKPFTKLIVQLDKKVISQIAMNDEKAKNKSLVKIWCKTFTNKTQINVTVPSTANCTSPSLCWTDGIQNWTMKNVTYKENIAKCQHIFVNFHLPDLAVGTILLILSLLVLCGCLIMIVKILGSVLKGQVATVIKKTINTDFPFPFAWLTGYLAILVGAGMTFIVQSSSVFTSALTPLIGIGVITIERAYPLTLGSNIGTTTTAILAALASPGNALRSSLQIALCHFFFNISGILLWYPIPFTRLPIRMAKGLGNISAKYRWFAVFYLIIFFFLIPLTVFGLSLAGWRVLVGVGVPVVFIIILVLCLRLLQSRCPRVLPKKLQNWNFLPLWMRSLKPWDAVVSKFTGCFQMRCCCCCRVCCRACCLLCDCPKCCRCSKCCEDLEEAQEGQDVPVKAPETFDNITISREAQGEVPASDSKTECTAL

Binder	Background-Subtracted AF647 Mean Fluorescence Intensity [MFI]
B1	1040
B2	-22
B3	870

target: T6, Construct 5 (chimeric human NaPi2b, swap in NaPi2a in 304-348) (human); experiment: as above
T6 construct: also called CL_#13436

Binder	Background-Subtracted AF647 Mean Fluorescence Intensity [MFI]
B1	25
B2	-2
B3	16

target: T7, Construct 3 (chimeric human NaPi2b, swap in NaPi2c in 304-321) (human); experiment: as above
T7 construct: also called CL_#29916

Binder	Background-Subtracted AF647 Mean Fluorescence Intensity [MFI]
B1	609
B2	19
B3	594

— patent US20260232827A1 (Zymeworks, published 2026)
